# According to publication PMC8887137:
# Tested on: NSP12 (RNA-dependent RNA polymerase) (SARS-CoV-2)
# Assay: filter binding
# Settings: 20 mM Tris, 200 mM KCl, room temperature, 1 h; pH not stated
substance,measurement,value
"NSP12 eCLIP peak RNA, region 7431-7555 (hairpin)",Kd,17 nM
